Assay results taken from patent US20210388107A1 (BYONDIS B V, published 2021).
Substitutions are numbered along the chain they refer to.

T1: cynomolgus monkey SIRPα expressed on ExpiCHO-S cells (cynomolgus monkey, UniProt A0A2K5VYQ9 31-507)
T1 construct: whole, on cells; also called cySIRPα; ExpiCHO-S (cySIRPα)
T1 sequence: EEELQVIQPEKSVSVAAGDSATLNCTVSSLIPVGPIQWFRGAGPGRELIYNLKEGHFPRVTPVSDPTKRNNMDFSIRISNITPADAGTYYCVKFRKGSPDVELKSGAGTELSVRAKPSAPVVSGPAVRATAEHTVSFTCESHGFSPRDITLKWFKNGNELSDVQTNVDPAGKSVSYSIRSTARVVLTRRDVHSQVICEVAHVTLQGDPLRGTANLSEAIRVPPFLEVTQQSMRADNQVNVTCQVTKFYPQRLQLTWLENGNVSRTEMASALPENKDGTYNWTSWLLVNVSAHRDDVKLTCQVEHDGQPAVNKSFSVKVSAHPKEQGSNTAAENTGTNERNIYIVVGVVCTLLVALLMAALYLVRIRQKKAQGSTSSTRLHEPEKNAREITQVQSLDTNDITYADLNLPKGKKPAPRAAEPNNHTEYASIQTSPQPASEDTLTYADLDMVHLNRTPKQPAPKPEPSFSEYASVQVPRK

B1: humanized anti-SIRPα antibody 5 (antibody, human IgG1, kappa, L234A L235A, V domains shown)
VH: RQLVESGGGLVQPGGSLRLSCAASGFSLSSHGISWVRQAPGKGLEYIGTIGTGVITYYASWAKGRFTGSKTSSTAYLQMTSLRAEDTAVYYCARGSAWNDPFDYWGQGTLVTVSS
VL: DIEMTQSPSSVSASVGDRVTLTCQASQSVYGNNDLAWYQQKPGQAPKLLIYLASTLATGVPSRFSGSGSGTDFTLTISSLQPEDFATYYCLGGGDDEADNVFGGGTKVEIKR
notes: human IgG1 LALA, kappa; also called mAb 5
B2: humanized anti-SIRPα antibody 8 (antibody, human IgG1, kappa, L234A L235A, V domains shown)
VH: B1 VH
VL: B1 VL with E3V, V11L, L21I, V101T, G104Q
notes: human IgG1 LALA, kappa; also called mAb 8
B3: humanized anti-SIRPα antibody 12 (antibody, human IgG1, kappa, L234A L235A)
heavy: not shown
light: DIQMTQSPSSLSASVGDRVTITCRASQSINSYLAWYQQKPGKAPKLLIYSASFLYSGVPSRFSGSGSGTDFTLTISSLQPEDFATYYCQSWHYISRSYTFGQGTKVEIKRTVAAPSVFIFPPSDEQLKSGTASVVCLLNNFYPREAKVQWKVDNALQSGNSQESVTEQDSKDSTYSLSSTLTLSKADYEKHKVYACEVTHQGLSSPVTKSFNRGEC
notes: human IgG1 LALA, kappa; also called mAb 12
B4: humanized anti-SIRPα antibody 13 (antibody, human IgG1, kappa, L234A L235A)
heavy: not shown
light: B3 light
notes: human IgG1 LALA, kappa; also called mAb 13

Biological target: T2, cynomolgus monkey SIRPα, extracellular domain, Avi-FXa-Fc tag (cynomolgus monkey, biotinylated)
T2 construct: also called cySIRPα
Assay: SPR, captured biotinylated antigen; sub-optimal fit
Protocol: (§1) Surface Plasmon Resonance (SPR) assay: Affinity analysis was performed by single cycle kinetics analysis on a Surface Plasmon Resonance apparatus (BiaCore™ T200 system, GE Life Sciences) at 25° C. […] For each step an association time of 150 sec was used, followed by a dissociation time of 600 sec after the highest concentration only, all at a flow rate of 30 μl/min. Regeneration was performed with 6 M guanidine-HCl, 0.25 M NaOH solution (120 sec with flow rate of 30 μl/min). […] Sensorgrams were fitted with a 1:1 Langmuir model for all tested anti-SIRP antibodies. The kinetic parameters (association rate [kₐ], dissociation rate [kd] and binding constant, also referred to as equilibrium dissociation constant or binding affinity [KD]) were calculated using BiaCore™ T200 evaluation software (v3.1).

Binder | Kd
B1 | 76.2 nM
B2 | 1.88 nM

Biological target: T3, human SIRPγ on human CD3+ T-cells (human, UniProt Q9P1W8 29-387)
T3 construct: whole, on cells
T3 sequence (Q9P1W8 29-387): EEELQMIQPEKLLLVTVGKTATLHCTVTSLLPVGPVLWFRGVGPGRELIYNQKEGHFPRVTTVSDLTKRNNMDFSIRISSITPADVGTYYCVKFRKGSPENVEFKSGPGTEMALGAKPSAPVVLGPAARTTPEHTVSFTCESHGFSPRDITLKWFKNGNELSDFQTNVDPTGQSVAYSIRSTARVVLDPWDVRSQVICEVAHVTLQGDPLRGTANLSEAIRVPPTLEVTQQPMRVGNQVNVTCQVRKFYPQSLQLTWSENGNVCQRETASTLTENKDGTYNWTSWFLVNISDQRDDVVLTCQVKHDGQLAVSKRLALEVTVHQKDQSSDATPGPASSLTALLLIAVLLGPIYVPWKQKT
Assay: flow cytometry on CD3+ T-cells in PBMC of two healthy individuals, MFI
Protocol: (§2) Flow Cytometry assay: Peripheral mononuclear cells (PBMC) were isolated from fresh blood of healthy individuals using Percoll gradient. […] Cells (200,000 cells/well in a 96-well plate) were subsequently incubated in the presence of tested antibodies or control conditions with secondary antibodies only (secondary goat anti-human IgG Alexa 633 F(ab′)₂ fragment, dilution 1:1000, Jackson Immuno Research, and secondary goat anti-mouse IgG Alexa 633 F(ab′)₂ fragment, dilution 1:250, Invitrogen) for 30 min on ice. After that, cells were washed with FACS buffer and resuspended in a mixture of anti-human CD3 FITC antibody (dilution 1:100, Invitrogen) with respective secondary antibody (either anti-human or anti-mouse) and incubated for 30 min in the dark on ice. Afterwards the cells were washed with FACS buffer and resuspended in 150 μl of FACS buffer and fluorescence intensities were determined by flow cytometry (LSRII HTS or LSRFortessa, BD Biosciences, CA, USA) and indicated as the median fluorescence intensity (MFI-Median) and percentage of positive cells.

Binder | binding result
B3 | no binding
B4 | no binding

Biological target: T3, human SIRPγ on human CD3+ T-cells
Assay: flow cytometry on CD3+ T-cells in PBMC of two healthy individuals, % of positive cells
Protocol: as §2

Binder | binding result
B1 | no binding
B2 | no binding

Biological target: T1, cynomolgus monkey SIRPα expressed on …
Assay: flow cytometry, ExpiCHO-S cells
Protocol: (§3) After an incubation time of 30 min at 4° C., the cells were washed three times with ice-cold FACS buffer and 50 μl/well secondary mAb (for human antibodies, AffiniPure F(ab′)₂ fragment Goat-anti-human IgG-APC, 1:6,000 dilution, Jackson Immuno Research was added and for mouse antibodies, AffiniPure Fab fragment Goat Anti-Mouse IgG (H+L)-Alexa Fluor 488, 1:1,000 dilution, Jackson Immuno Research was added). After 30 min at 4° C., cells were washed twice and resuspended in 150 μl FACS buffer. Fluorescence intensities were determined by flow cytometry (BD FACSVerse, Franklin Lakes, N.J.) and indicated as the median fluorescence intensity (MFI-Median) for U937 cells and the mean fluorescence intensity (MFI-Mean) for ExpiCHO-S cells. Curves were fitted by nonlinear regression using the sigmoidal dose-response equation with variable slope (four parameters) in GraphPad Prism (version 7.02 for Windows, GraphPad, San Diego, Calif.). EC₅₀ values were calculated as the concentration in μg/ml that gives a response half way between bottom and top of the curve, when using a 4-parameter logistic fit.

Binder | EC50
B3 | 0.23 µg/mL
B4 | 0.11 µg/mL
B1 | 1.91 µg/mL
B2 | 2.44 µg/mL

Biological target: T4, human SIRPαBIT expressed on cells (human, UniProt P78324 31-504)
T4 construct: endogenous on U937 cells or transiently expressed on ExpiCHO-S cells; in the SHP-1 assay a ProLink-tagged form on Jurkat cells; also called huSIRPαBIT; U937 cells (huSIRPαBIT)
Assay: flow cytometry, ExpiCHO-S cells
Protocol: as §3

Binder | EC50
B3 | 0.26 µg/mL
B4 | 0.28 µg/mL
B1 | 0.12 µg/mL
B2 | 0.14 µg/mL

Biological target: T5, human SIRPα1 expressed on cells (human, UniProt P78324 31-504)
T5 construct: whole, on cells; also called huSIRPα1; ExpiCHO-S (huSIRPα1)
Assay: flow cytometry, ExpiCHO-S cells
Protocol: as §3

Binder | EC50
B3 | 0.27 µg/mL
B4 | 0.27 µg/mL
B1 | 0.22 µg/mL
B2 | 0.17 µg/mL

Biological target: T6, human SIRPαBIT, extracellular domain 1-370, Avi-FXa-Fc tag (human, biotinylated)
T6 construct: also called huSIRPαBIT; v1
T6 sequence (chain, as listed by the source limits assumed): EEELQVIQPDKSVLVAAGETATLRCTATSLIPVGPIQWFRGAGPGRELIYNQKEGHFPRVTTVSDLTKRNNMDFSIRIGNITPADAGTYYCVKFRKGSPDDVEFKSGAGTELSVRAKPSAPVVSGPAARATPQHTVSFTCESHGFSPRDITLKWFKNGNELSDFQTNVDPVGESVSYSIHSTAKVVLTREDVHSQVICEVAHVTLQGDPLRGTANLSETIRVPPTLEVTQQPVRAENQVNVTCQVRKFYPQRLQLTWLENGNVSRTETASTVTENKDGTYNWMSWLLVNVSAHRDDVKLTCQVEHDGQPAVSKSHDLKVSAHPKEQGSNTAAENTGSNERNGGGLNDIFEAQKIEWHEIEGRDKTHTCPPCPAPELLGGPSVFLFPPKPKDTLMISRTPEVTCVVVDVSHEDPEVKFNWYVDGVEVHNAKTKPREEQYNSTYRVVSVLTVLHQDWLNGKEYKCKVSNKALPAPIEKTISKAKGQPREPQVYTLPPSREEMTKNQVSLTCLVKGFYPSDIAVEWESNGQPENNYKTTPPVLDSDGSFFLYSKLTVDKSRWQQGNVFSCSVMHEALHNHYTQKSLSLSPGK
Assay: SPR, captured biotinylated antigen
Protocol: as §1

Binder | Kd
B3 | < 0.01 nM
B4 | < 0.01 nM
B1 | 0.142 nM
B2 | 0.152 nM

Biological target: T2, cynomolgus monkey SIRPα, extracellular …
Assay: SPR, captured biotinylated antigen
Protocol: as §1

Binder | Kd
B3 | 1.53 nM
B4 | 2.05 nM

Biological target: T7, human SIRPγ, extracellular domain, Avi-FXa-Fc tag (human, biotinylated)
T7 construct: also called huSIRPγ
T7 sequence (chain, as listed by the source limits assumed): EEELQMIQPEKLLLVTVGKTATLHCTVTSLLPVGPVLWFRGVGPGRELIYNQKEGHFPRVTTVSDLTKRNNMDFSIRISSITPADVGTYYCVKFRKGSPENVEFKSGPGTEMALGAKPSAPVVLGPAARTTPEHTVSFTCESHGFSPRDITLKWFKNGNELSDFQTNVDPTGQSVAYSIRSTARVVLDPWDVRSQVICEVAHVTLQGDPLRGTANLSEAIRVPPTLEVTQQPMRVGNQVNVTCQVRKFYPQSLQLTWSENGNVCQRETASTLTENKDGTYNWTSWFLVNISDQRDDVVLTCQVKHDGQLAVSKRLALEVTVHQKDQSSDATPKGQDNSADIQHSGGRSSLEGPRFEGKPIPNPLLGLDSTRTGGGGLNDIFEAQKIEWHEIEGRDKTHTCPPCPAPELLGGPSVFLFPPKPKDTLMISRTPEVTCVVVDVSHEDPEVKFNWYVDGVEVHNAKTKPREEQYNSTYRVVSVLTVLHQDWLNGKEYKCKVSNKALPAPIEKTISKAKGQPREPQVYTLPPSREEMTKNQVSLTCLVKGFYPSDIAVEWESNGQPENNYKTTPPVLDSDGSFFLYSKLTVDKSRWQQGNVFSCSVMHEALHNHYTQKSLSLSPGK
Assay: SPR, captured biotinylated antigen
Protocol: as §1

Binder | binding result
B3 | no binding (tested: below 10 RU cut-off; up to 1600 ng/ml)
B4 | no binding (tested: below 10 RU cut-off; up to 1600 ng/ml)
B1 | no binding (tested: below 10 RU cut-off; up to 1600 ng/ml)
B2 | no binding (tested: below 10 RU cut-off; up to 1600 ng/ml)

Biological target: T8, human SIRPβ1v1, extracellular domain, Avi-FXa-Fc tag (human, biotinylated)
T8 construct: also called huSIRPβ1v1
T8 sequence (chain, as listed by the source limits assumed): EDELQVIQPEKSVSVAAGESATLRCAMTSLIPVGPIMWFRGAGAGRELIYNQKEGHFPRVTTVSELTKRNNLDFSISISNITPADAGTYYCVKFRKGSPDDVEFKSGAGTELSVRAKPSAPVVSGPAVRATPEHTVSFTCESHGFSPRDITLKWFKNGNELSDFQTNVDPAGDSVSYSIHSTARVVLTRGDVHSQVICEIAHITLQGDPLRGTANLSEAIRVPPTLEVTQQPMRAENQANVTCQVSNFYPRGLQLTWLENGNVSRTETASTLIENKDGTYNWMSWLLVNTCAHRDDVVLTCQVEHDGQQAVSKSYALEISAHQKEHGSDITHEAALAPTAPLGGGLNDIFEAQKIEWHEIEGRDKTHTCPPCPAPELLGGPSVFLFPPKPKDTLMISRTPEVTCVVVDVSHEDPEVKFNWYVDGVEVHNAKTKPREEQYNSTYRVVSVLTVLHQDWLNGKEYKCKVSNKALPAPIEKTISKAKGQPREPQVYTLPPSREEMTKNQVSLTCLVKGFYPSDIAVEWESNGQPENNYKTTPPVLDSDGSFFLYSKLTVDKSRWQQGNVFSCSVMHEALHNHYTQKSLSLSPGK
Assay: SPR, captured biotinylated antigen
Protocol: as §1

Binder | Kd
B1 | 0.593 nM
B2 | 0.661 nM

Biological target: T9, human SIRPα1 extracellular domain 1-370, Avi-FXa-Fc tag (human, biotinylated)
T9 construct: also called huSIRPα1; v2
T9 sequence (chain, as listed by the source limits assumed): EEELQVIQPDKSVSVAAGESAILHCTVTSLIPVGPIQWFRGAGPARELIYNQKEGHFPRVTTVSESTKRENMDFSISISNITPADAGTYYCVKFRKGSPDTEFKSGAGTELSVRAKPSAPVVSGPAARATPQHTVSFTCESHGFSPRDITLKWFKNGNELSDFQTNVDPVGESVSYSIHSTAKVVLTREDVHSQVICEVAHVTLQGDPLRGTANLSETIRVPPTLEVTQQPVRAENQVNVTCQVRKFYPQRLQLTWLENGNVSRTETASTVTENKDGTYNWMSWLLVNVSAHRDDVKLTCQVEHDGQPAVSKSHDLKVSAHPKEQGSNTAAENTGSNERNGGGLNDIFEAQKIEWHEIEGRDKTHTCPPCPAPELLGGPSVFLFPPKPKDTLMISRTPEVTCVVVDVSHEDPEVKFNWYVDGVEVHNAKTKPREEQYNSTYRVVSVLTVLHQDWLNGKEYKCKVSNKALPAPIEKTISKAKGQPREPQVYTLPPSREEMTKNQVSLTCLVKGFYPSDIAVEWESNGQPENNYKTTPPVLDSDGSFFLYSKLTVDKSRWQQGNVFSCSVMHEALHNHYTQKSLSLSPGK
Assay: SPR, captured biotinylated antigen
Protocol: as §1

Binder | Kd
B3 | 1.38 nM
B4 | 1.41 nM
B1 | < 0.01 nM
B2 | < 0.01 nM

Biological target: T10, human SIRPβ1v2, extracellular domain, Avi-FXa-Fc tag (human, biotinylated)
T10 construct: also called huSIRPβ1v2
T10 sequence (chain, as listed by the source limits assumed): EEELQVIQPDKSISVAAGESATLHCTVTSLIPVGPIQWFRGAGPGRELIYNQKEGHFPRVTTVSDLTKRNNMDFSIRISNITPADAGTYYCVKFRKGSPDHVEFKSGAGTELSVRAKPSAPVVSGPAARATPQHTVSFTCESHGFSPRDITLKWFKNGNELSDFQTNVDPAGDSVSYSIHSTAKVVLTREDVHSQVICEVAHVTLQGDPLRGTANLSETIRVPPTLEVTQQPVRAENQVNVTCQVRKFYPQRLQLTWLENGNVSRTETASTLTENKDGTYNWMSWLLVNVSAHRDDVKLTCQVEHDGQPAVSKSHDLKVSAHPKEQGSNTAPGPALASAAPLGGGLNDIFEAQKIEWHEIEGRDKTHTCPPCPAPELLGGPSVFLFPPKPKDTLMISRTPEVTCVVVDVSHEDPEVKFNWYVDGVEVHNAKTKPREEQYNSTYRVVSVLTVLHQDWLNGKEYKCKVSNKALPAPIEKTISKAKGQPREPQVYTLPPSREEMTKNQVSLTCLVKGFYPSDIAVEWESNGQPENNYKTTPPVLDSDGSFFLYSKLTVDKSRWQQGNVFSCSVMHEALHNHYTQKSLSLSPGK
Assay: SPR, captured biotinylated antigen
Protocol: as §1

Binder | Kd
B3 | 1.94 nM
B4 | 2.78 nM
B1 | 2.97 nM
B2 | 1.84 nM

Biological target: T4, human SIRPαBIT expressed on cells
Assay: flow cytometry, U937 cells
Protocol: as §3

Binder | EC50
B3 | 0.08 µg/mL
B4 | 0.08 µg/mL
B1 | 1.6 µg/mL
B2 | 1.04 µg/mL
